Data on six molecules can be found in publication PMC7954794, “Protein context shapes the specificity of SH3 domain-mediated interactions in vivo” (Nature Communications, 2021).

Experiment [1] concerns ABP1. Description: DHFR-PCA on solid medium, bait ABP1 (Fig. 1B). The class given is cell-based, Saccharomyces cerevisiae. As to conditions: bait ABP1, label = prey; 2-4 replicates. From the text:
Supplement 41467_2021_21873_MOESM8_ESM.xlsx, sheet "Fig1B" | column: medsize; medrep; Ratio; Score

Experiment [2] relates to Hua2. The experiment is described as follows: Deep mutational scanning of Abp1 SH3, Abp1-Hua2 DHFR-PCA (DMS score). The class given is cell-based, Saccharomyces cerevisiae. As to conditions: for ratio (log2 scale): HUA2_MTX2 (test) vs HUA2_S2 (reference); for ratio (log2 scale) / ratio (log2 scale) mean / frequency (reference condition) / frequency (test condition): amino acid mutation format; for ratio (log2 scale) / frequency (reference condition) / frequency (test condition): replicate 1, Fig. S3A-B; for ratio (log2 scale) mean: condition HUA2_MTX2; for ratio (log2 scale) mean / frequency (reference condition) mean / frequency (test condition) mean / frequency (log2 scale) (reference condition) mean / frequency (log2 scale) (test condition) mean: Fig. S3E; for frequency (reference condition): reference condition HUA2_S2; for frequency (reference condition) mean / frequency (log2 scale) (reference condition) mean: reference condition for HUA2_MTX2; for frequency (test condition) / frequency (test condition) mean / frequency (log2 scale) (test condition) mean: test condition HUA2_MTX2. Here is the method:
Single site mutation libraries were generated by a PCR-based saturation mutagenesis method[50] as described below. The mutagenesis was carried out on the pUC19 plasmid containing the SH3 domain sequence of ABP1 flanked by its homology arms subsequently used in the CRISPR mediated genomic re-integration. We used oligos containing degenerate nucleotides (NNN) to carry out the mutagenesis at each codon of the domain sequence. In the first step of the two-step PCR procedure (short PCR step), an amplicon was generated with an oligo containing the degenerate codon which is positioned within the domain sequence, and another oligo lying outside Abp1 sequence in the plasmid. Short PCR step was carried out with the following settings: 5 min at 95 °C, 35 cycles: 20 s at 98 °C, 15 s at 60 °C, 30 s at 72 °C, and a final extension of 1 min at 72 °C. The amplicon generated in this step was used as a mega primer in the second step (long PCR step) to amplify the whole plasmid. Long PCR step was carried out with the following settings: 5 min at 95 °C, 22 cycles: 20 s at 98 °C, 15 s at 68 °C, 3 min 30 s at 72 °C, and a final extension of 5 min at 72 °C. The long PCR product was digested for 2 h at 37 °C with DpnI. The digestion product was then transformed into E. coli MC1061 competent cells. In order to obtain most of the 64 possible codons, we recovered ~1000 colonies from each plate to retrieve the plasmid single mutant libraries. Saturation mutagenesis was carried out in a codon-position-wise manner. Mutants at each position were stored separately. Library quality control was assessed by amplifying the purified plasmid DNA preparations by PCR followed by Illumina sequencing as described below. The genomic insertion of the mutant libraries (one library per amino acid position) was performed by targeting the stuffer sequence in the ABP1 SH3-deleted strain as described in the strain construction section. ABP1 SH3-deleted yeast competent cells were co-transformed with pCAS containing the stuffer-specific gRNA and PCR amplified ABP1 SH3 single position mutated libraries from the pUC19 preparations. As for the library generation, ~1000 colonies from each plate were retrieved. Glycerol stocks of yeast cells were kept for each position (58 different stocks corresponding to the 58 amino acid positions of Abp1 SH3). The stocks were also validated by Illumina sequencing (see below).
Liquid DHFR-PCA experiments were performed following the generation of the ABP1 SH3 single position mutated yeast strains and were performed in biological independent duplicates. An overnight culture was started in YPD + NAT by adding the same number of cells from each yeast mutant strain (master pool). Then, the master pool and Hua2-DHFR F[3] or Lsb3-DHFR F[3] preys strains were mixed in YPD (2:1) for mating and incubated for 8 h at 30 °C. Diploid cells were selected the first time by transferring the mixture in a YPD + NAT + HPH (OD 0.5) culture for 16 h at 30 °C. The next day, the first diploid selection was transferred in SC complete pH 6.0 + NAT + HPH at 0.5 OD and the culture was grown for 24 h at 30 °C. The validation of the yeast mutant libraries was done the next day with a fraction of the diploid cells (first DHFR-PCA experiment time point without PCA selection, reference condition S2) by amplifying ABP1 SH3 genomic sequence followed by Illumina sequencing as described in the section below. Following the selection, diploid cells OD was read using a TECAN Infinite F200 Pro, and dilutions to 0.1 OD in PCA selection media without agar in a 50 mL tube was done. Tubes were incubated at 30 °C for 72 h (second-time point of the DHFR-PCA experiment, first PCA selection). A fraction of the cells (5U OD) was collected for Illumina sequencing. The cells from the first PCA step were grown for a second PCA selection step using the same procedures. […]

B1: YDL146W (protein, UniProt Q12342 1-491, looked up)
Protein LDB17: MILDPLSPNIENHTQDEIIEFWEKTESIANIPKENLDESHVNSSLVAYLKFATDSYKVFINTDRDLYRMSLILLESSLFEFKKEFCLSKLQSLLNIDLLEMNMKFIIVYILLCEAKKNVYSLEIMLKFQGFTVFYNTLYTQFAYLSKYGKERTVASKHQYNSNNSSTGTSLDSLDRSLTDIDLGIIDEMKQISTVLMDLLFQIMKYCKCVIANLQIVDDFFVYYMMESMRSDTMDDMFNNAEFKLLLALNEQYMMFAKEYDIENKVYKYLINGSVSRCFTELLLLKFNRASDPPLQIMMCKIIYLILTPRGDYSPMNFFYTNDLRVLIDVLIRELQNISEDEEVLRNTLLRVLIPLLKNTQLSKTHYRKDDLNKLLNYLSTLDNICVDSPALHEHQVTVALSRKCLQQIPWLETPSTPSDGGSSVSSNNTSRNSSIVALGTPDNQNILARKGHLYSNRELDVSAESLTKRKAKAPPPPPPPPPSRKCGTPK
Take B1: the “medrep (log2 median colony size normalized to plate background, PCA score)” value in experiment [1] is reported as 3.631.

B2: YGL252C (protein, UniProt P32608 1-588, looked up)
Retrograde regulation protein …: MSTLSDSDTETEVVSRNLCGIVDIGSNGIRFSISSKAAHHARIMPCVFKDRVGLSLYEVQYNTHTNAKCPIPRDIIKEVCSAMKRFKLICDDFGVPETSVRVIATEATRDAINADEFVNAVYGSTGWKVEILGQEDETRVGIYGVVSSFNTVRGLYLDVAGGSTQLSWVISSHGEVKQSSKPVSLPYGAGTLLRRMRTDDNRALFYEIKEAYKDAIEKIGIPQEMIDDAKKEGGFDLWTRGGGLRGMGHLLLYQSEGYPIQTIINGYACTYEEFSSMSDYLFLKQKIPGSSKEHKIFKVSDRRALQLPAVGLFMSAVFEAIPQIKAVHFSEGGVREGSLYSLLPKEIRAQDPLLIASRPYAPLLTEKYLYLLRTSIPQEDIPEIVNERIAPALCNLAFVHASYPKELQPTAALHVATRGIIAGCHGLSHRARALIGIALCSRWGGNIPESEEKYSQELEQVVLREGDKAEALRIVWWTKYIGTIMYVICGVHPGGNIRDNVFDFHVSKRSEVETSLKELIIDDANTTKVKEESTRKNRGYEVVVRISKDDLKTSASVRSRIITLQKKVRKLSRGSVERVKIGVQFYEE
Turning to B2, in experiment [1], the “medrep (log2 median colony size normalized to plate background, PCA score)” value came to 2.12.

B3: YFR040W (protein, UniProt P43612 1-1002, looked up)
SIT4-associating protein …: MSFWPFGQNLNHSNINKILDEYFHVLHELERINPSVGKAIPAIFNNVQERGTSDSLDSIPEEYSHGDEVKTARGDQKSRFEKDDQQERYEKEEEERSMNSSESSTTSFSSGSTSKTDLDEEDISNATAPMMVTTKNLDNSFIERMLVETELLNELSRQNKTLLDFICFGFFFDKKTNKKVNNMEYLVDQLMECISKIKTATTVDLNNLIDYQEQQQLDDSSQEDVYVESDTEQEEEKEDDNNSNNKKRRKRGSSSFGNDDINNNDDDDDANEDDESAYLTKATIISEIFSLDIWLISESLVKNQSYLNKIWSIINQPNFNSENSPLVPIFLKINQNLLLTRQDQYLNFIRTERSFVDDMLKHVDISLLMDFFLKIISTDKIESPTGIIELVYDQNLISKCLSFLNNKESPADIQACVGDFLKALIAISANAPLDDISIGPNSLTRQLASPESIAKLVDIMINQRGAALNTTVSIVIELIRKNNSDYDQVNLLTTTIKTHPPSNRDPIYLGYLLRKFSNHLSDFFQIILDIENDANIPLHENQLHEKFKPLGFERFKVVELIAELLHCSNMGLMNSKRAERIARRRDKVRSQLSHHLQDALNDLSIEEKEQLKTKHSPTRDTDHDLKNNNGKIDNDNNDNDDESDYGDEIDESFEIPYINMKQNIKLRTDPTVGDLFKIKLYDTRIVSKIMELFLTHPWNNFWHNVIFDIIQQIFNGRMDFSYNSFLVLSLFNLKSSYQFMTDIVISDEKGTDVSRFSPVIRDPNFDFKITTDFILRGYQDSYKFYELRKMNLGYMGHIVLIAEEVVKFSKLYKVELISPDIQVILQTEEWQYYSEEVLNETRMMYSKILGGGSYIDDGNGNIIPQLPDNTTVLTPNGDASNNNEILDSDTGSSNGTSGGGQLINVESLEEQLSLSTESDLHNKLREMLINRAQEDVDNKNTENGVFILGPPEDKNSNSNINNTNHNSNNSNNNDNNDNNDNDNDNTRNYNEDADNDNDYDHE
As for B3, the “medrep (log2 median colony size normalized to plate background, PCA score)” value in experiment [1] was determined as 2.847.

B4: ABP1 001 P * (protein, UniProt P15891 2-592, looked up)
Actin-binding protein: ALEPIDYTTHSREIDAEYLKIVRGSDPDTTWLIISPNAKKEYEPESTGSSFHDFLQLFDETKVQYGLARVSPPGSDVEKIIIIGWCPDSAPLKTRASFAANFAAVANNLFKGYHVQVTARDEDDLDENELLMKISNAAGARYSIQTSSKQQGKASTPPVKKSFTPSKSPAPVSKKEPVKTPSPAPAAKISSRVNDNNDDDDWNEPELKERDFDQAPLKPNQSSYKPIGKIDLQKVIAEEKAKEDPRLVQKPTAAGSKIDPSSDIANLKNESKLKRDSEFNSFLGTTKPPSMTESSLKNDDDKVIKGFRNEKSPAQLWAERKAKQNSGNAETKAEAPKPEVPEDEPEGEPDVKDLKSKFEGLAASEKEEEEMENKFAPPPKKSEPTIISPKPFSKPQEPVKAEEAEQPKTDYKKIGNPLPGMHIEADNEEEPEENDDDWDDDEDEAAQPPLPSRNVASGAPVQKEEPEQEEIAPSLPSRNSIPAPKQEEAPEQAPEEEIEEEAEEAAPQLPSRSSAAPPPPPRRATPEKKPKENPWATAEYDYDAAEDNELTFVENDKIINIEFVDDDWWLGELEKDGSKGLFPSNYVSLGN
For B4, in experiment [2], the “ratio (log2 scale)” value was -1.421 log2 scale, the “ratio (log2 scale) mean” value was -1.432 log2 scale, the “frequency (reference condition)” value amounted to 0.001041 and the “frequency (reference condition) mean” value is recorded as 0.0009397. Moreover, in experiment [2], the “frequency (test condition)” value came to 5.39E-06 and the “frequency (test condition) mean” value stood at 2.69E-06.

B5: ABP1 001 P E (protein, UniProt P15891 2-592, looked up)
Actin-binding protein: B4 Actin-binding protein
In the case of B5, in experiment [2], the “ratio (log2 scale)” value worked out at 2.627 log2 scale, the “ratio (log2 scale) mean” value worked out at 2.654 log2 scale, the “frequency (reference condition)” value was determined as 0.0007975 and the “frequency (log2 scale) (reference condition) mean” value is recorded as -1.4398 log2 scale. Moreover, in experiment [2], the “frequency (reference condition) mean” value is on record as 0.0006949, the “frequency (test condition)” value was 0.002419, the “frequency (log2 scale) (test condition) mean” value was -1.434 log2 scale and the “frequency (test condition) mean” value was determined as 0.002135.

B6: ABP1 001 P C (protein, UniProt P15891 2-592, looked up)
Actin-binding protein: B4 Actin-binding protein
Regarding B6, in experiment [2], the “ratio (log2 scale)” value worked out at 2.7124 log2 scale, the “ratio (log2 scale) mean” value turned out to be 3.075 log2 scale, the “frequency (reference condition)” value worked out at 0.0005961 and the “frequency (log2 scale) (reference condition) mean” value was -1.441 log2 scale. Moreover, in experiment [2], the “frequency (reference condition) mean” value was 0.0004649, the “frequency (test condition)” value is reported as 0.001896, the “frequency (log2 scale) (test condition) mean” value was -1.435 log2 scale and the “frequency (test condition) mean” value was found to be 0.001734.
